{
  "source": "patent US20210244768A1",
  "about": "“CELL COMPOSITIONS AND USES THEREOF” (THE UNIVERSITY OF SYDNEY, priority 2018, published 2021)",
  "molecules": {"B1": {"name": "BMP4: agent which induces BMP signalling, added during GABAergic differentiation of hiPSCs (protein, UniProt P12644 293-408, looked up)", "Bone morphogenetic protein 4": "SPKHHSQRARKKNKNCRRHSLYVDFSDVGWNDWIVAPPGYQAFYCHGDCPFPLADHLNSTNHAIVQTLVNSVNSSIPKACCVPTELSAISMLYLDEYDKVVLKNYQEMVVEGCGCR"}},
  "key": {"[1]": {"tested_on": "PAVB expression", "test": "qPCR of PAVB expression in hiPSC-GABA neurons exposed to BMP4", "format": "cell-based, human", "details": "BMP4 exposure during week 3 (about DIV14 to DIV21); not with week 4 or weeks 3 and 4", "description": "(§1) After quantification, 1 μg of RNA was retrotranscribed with Superscript III First-Strand Synthesis SuperMix for qRT-PCR (Thermo Fisher Scientific Life Sciences). A total of 2 μl of cDNA was used for qPCR using the SYBR Select Master Mix. Real-Time PCR was run on a LightCycler 480 Instrument II (Roche Life Science). The cycling program for all genes is the following: • 1. 95° C. 10′ Initial denaturation step • 2. 95° C. 30″ • 3. 58° C. 30″ • 4. 72° C. 30″ go to 2 for 35 cycles • 5. Melting curve analysis.\n(§2) iGABAergic neurons were prepared according to an adaptation of the method described in Example 5. During the GABAergic differentiation protocol, hiPSCs were exposed to BMP4, during week 3 only (i.e. about DIV14 to about DIV21), week 4 only (i.e. about DIV21 to about DIV28) or during week 3 and week 4 (i.e. about DIV14 to about DIV28). Following differentiation (i.e. DIV28) the iGABAergic neurons were assessed for expression of somatostatin (SST) and Parvalbumin (PVALB). BMP4 treated cells were then be tested for their ability to reverse neuropathic pain and compared to non-treated iGABAergic neurons using the SNI model as hereinbefore described."}, "[2]": {"tested_on": "SST expression", "test": "qPCR of SST expression in hiPSC-GABA neurons exposed to BMP4", "format": "cell-based, human", "details": "BMP4 exposure during either or both of weeks 3 and 4", "description": "as §1, §2"}},
  "data": [
    {"molecule": "B1", "values": [
      {"measurement": "increase of PAVB expression", "setting": "[1]", "value": 6, "unit": "fold"},
      {"measurement": "reduction of SST expression", "setting": "[2]", "value": 50, "unit": "%"}
    ]}
  ]
}
